The results in this text go back to patent publication US20050123978.

The series deals with T1, recombinant ANX7 (human annexin VII) (UniProt P20073).
T1 sequence: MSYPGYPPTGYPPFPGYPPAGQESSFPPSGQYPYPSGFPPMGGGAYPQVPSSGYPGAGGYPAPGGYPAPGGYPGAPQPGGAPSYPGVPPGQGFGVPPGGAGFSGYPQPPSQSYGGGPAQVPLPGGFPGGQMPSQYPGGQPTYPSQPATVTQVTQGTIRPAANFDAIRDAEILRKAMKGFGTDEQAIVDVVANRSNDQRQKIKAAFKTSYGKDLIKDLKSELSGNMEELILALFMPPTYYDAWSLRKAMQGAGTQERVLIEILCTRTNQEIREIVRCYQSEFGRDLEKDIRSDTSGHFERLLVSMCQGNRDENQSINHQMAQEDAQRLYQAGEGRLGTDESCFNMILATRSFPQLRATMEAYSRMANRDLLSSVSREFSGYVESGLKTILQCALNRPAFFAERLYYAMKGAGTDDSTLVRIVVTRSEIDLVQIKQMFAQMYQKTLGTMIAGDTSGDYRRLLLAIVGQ
As to cAMP-dependent protein Kinase, the “molar ratio of ^32[P]/ANX7 protein after a 30-minute incubation” value (shortened to “molar ratio of ^32[P]/ANX7 protein”) is given as “PKA (molar ratio=1.0)”.

Take Casein kinase I: the “in vitro phosphorylation of recombinant ANX7” value (from here on “in vitro phosphorylation”) is “no activity was detected when recombinant ANX7 was exposed to casein kinase 1, casein kinase II, or Ca^2+/calmodulin kinase II”.

As to casein Kinase II, the “in vitro phosphorylation” value is “no activity was detected when recombinant ANX7 was exposed to casein kinase 1, casein kinase II, or Ca^2+/calmodulin kinase II”.

With cGMP-dependent protein kinase, the “molar ratio of ^32[P]/ANX7 protein” value is “PKG (molar ratio=1.0)”.

Take epidermal growth factor receptor kinase: the “molar ratio of ^32[P]/ANX7 protein” value is on record as “only five were active ... EGFR kinase (molar ratio not determined)”.

Take Ca^2+/calmodulin Kinase II: the “in vitro phosphorylation” value is recorded as “no activity was detected when recombinant ANX7 was exposed to casein kinase 1, casein kinase II, or Ca^2+/calmodulin kinase II”.

With protein kinase C, the “molar ratio of ^32[P]/ANX7 protein” value is reported as “PKC (molar ratio=2.0)”.

For the substance tyrosine kinase p60^src, the “molar ratio of ^32[P]/ANX7 protein” value was “p60^src (molar ratio=1.0)”.
